Patent publication US20220031745A1

Tests used:
Experiment in all cases: quantitative flow cytometry, anti-myc staining of CD8+ T cells; ABC = number of receptors/cell; UnT T cells read ~350
[1] = molecular target: high affinity anti-Her2 CAR (4D5 variant HIGH scFv, CD8 transmembrane, 41BB, CD3zeta) (UniProt P01732)
[2] = molecular target: low affinity anti-Her2 SynNotch receptor (4D5 variant LOW scFv, mouse Notch1 minimal regulatory region, Gal4 DBD VP64) (mouse) (UniProt Q01705)
[3] = molecular target: low affinity anti-Her2 CAR (4D5 variant LOW scFv, CD8 transmembrane, 41BB, CD3zeta) (UniProt P01732)

Question: Which results are given for Anti-myc Alexa-647 (antibody)?
Answer: ABC (antibody binding capacity) [1]: 19000; ABC (antibody binding capacity) [2]: 2550; ABC (antibody binding capacity) [3]: 7600
